# Results reported in the DeepSol protein solubility set.
# Assay: soluble on expression in E. coli; label from the status in PepcDB or PDB records
row,Sequence,soluble on expression in E. coli
1,MSWLKEVIGTEKAVIAMCHLRALPGDPSFDAQLGMNWVIDKAWDDLMALQNGGVDAVMFSNEFSLPYLTKVRPETTAAMARIIGQLMSDIRIPFGVNVLWDPVASFDLAMATGAKFIREIFTGAYASDFGVWDTNVGETIRHQHRIGAGEVKTLFNIVPEAAVYLGNRDICSIAKSTVFNNHPDALCVSGLTAGTRTDSALLKRVKETVPDTVVLANTGVCLENVEEQLSIADGCVTATTFKKDGVFANFVDQARVSQFMEKVHHIRR,not soluble
2,MSLDHFQIDHIAIAVPSLNTSLPLFEQALQATASHEERLPHHHINAVFINGRGVGYELIEPHPSNVSMQRFLAKQNNRPAFHHIAFSVANIETAIGMLKEKHVRLTSELPLIGSFGRKVAFIHPSSTGGLLVELCEGKTEGHHHHHH,soluble
3,MSLLLGVENGRITQLGDAELLAGELDISVKIHDYTGKIICPGFVDTHVHYPQLAIIGSYGESLLHWLENYAFDEEKKFNDADHSLKTANHFLDELLRCGTTTAQVFGTVHPESVEGFFTAAEHRDLRMICGKVLMDRNGPLGLLDTPETSYVDSKNLIERWHGRSRLRYAVSPRFAPTSTPDQLATARQLLREYPGTHLQTHLSEDQEEIKWVKSLFPHCKNYLDIYKRAGLLGKRSTFAHCLHLTEADWEMLEHEGCSVAFCPSSNLFLGSGLFDLPRPQFANVKVGIGTDVGAGTSLSMLQTIADAYKTQRLAGNDLSPLSGLYMATLGGAKSLDCDADIGNFKIGKEADFTVLDPESTPLMSYRMQNCKSLEERLAVIVLLGDDRAILATYANGRCVHDRDIDEESEGHHHHHH,soluble
4,MSLKVLAAMSGGVDSSVAAARMVDAGHEVVGVHMALSTAPGTLRTGSRGCCSKEDAADARRVADVLGIPFYVWDFAEKFKEDVINDFVSSYARGETPNPCVRCNQQIKFAALSARAVALGFDTVATGHYARLSGGRLRRAVDRDKDQSYVLAVLTAQQLRHAAFPIGDTPKRQIRAEAARRGLAVANKPDSHDICFIPSGNTKAFLGERIGVRRGVVVDADGVVLASHDGVHGFTIGQRRGLGIAGPGPNGRPRYVTAIDADTATVHVGDVTDLDVQTLTGRAPVFTAGAAPSGPVDCVVQVRAHGETVSAVAELIGDALFVQLHAPLRGVARGQTLVLYRPDPAGDEVLGSATIAGASGLSTGGNEGHHHHHH,soluble
5,MSLATPSFGNSSPQLTFTHVANFMNDAAADVSAVDAKQLAQIRQFLKANKTNLIESLNTIRQNVTSSGDHNKLRSTIANLLQINVDNDPFFAQSEDLSHAVEFFMSERSSRLHIVYSLLVNPDIDLETYSFIDNDRFNVVGKLISIISSVIQNYDIITASSLAHDYNNDQDMFTIVSLVQLKKFSDLKFILQILQILNLMILNTKVPVDIVNQWFLQYQNQFVEFCRNINSTDKSIDTSSLQLYKFQNFQDLSYLSETLISRISSLFTITTILILGLNTSIAQFDIQSPLYMDTETFDTVNSALENDVATNIVNEDPIFHPMIHYSWSFILYYRRALQSSESFDDSDITKFALFAESHDVLQKLNTLSEILSFDPVYTTVITVFLEFSLNFIPITASTSRVFAKIISKAPEQFIENFLTNDTFEKKLSIIKAKLPLLNEEGHHHHHH,soluble
6,MSLDSKLIFFDIDGTIYDHDKNIPESTRKTVAELQRQGHHVFIASGRSPFLVKPILEELGIHSFISYNGQFVVFENQVIYKNPLPENAIRRLLKQADEGKHPVVFMAEDTMKATVADHPHVLEGIGSLKTDYPETDDLFYEGKEIFQLLLFCQDEEEKAYAAFPEFDLVRWHELSTDVLPHGGSKAEGIKKVIERLPFDIGDTYAFGDGLNDLQMIEYVGTGVAMGNAVPELKEIADFVTKPVDEDGIAYAVKELGLLKEGHHHHHH,soluble
7,MPLIFAPFAADLARRAAALMPIDVLEIAAGTGAVTREMIPRLLPAAHYVVTDLNQPMLDFAAAQQAPDNRIKWRQADAQLLPFENAVFDLVFCQFGAMFFNDRLSAYREAKRVLKPGGHYLFNVWDRIEENHFADDVTNALAGLFPDDPPRFMARTPHGYHDTVLIRRELENAGFSRVTVETVAAQSRAPSPRIPAVAYCQGTVLRTEIEARAPGKLNAATDCAAAAIEARHGKGEVAAKIKAHVILAAV,not soluble
8,MGHHHHHHSHMSSRGHSTLPRTLMAPRMISEGDIGGIAQITSSLFLGRGSVASNRHLLQARGITCIVNATIEIPNFNWPQFEYVKVPLADMPHAPIGLYFDTVADKIHSVSRKHGATLVHCAAGVSRSATLCIAYLMKFHNVCLLEAYNWVKARRPVIRPNVGFWRQLIDYERQLFGKSTVKMVQTPYGIVPDVYEKESRHLMPYWGI,not soluble
9,MGSDKIHHHHHHMQTNDKVLKAFHSVKDVGSERSIVELGWLEVVSVKPPKIVVRLNLPNFAIAQRGQMAVDIRESIKSLEDIEEVQIEIGDSSPSKESPIGQAGHGSQSQGLTAIPKVKNVIAISSGKGGVGKSTVAVNLACALSQKGFKVGLLDADIYGPNTPYMLGVSEITPEVSGSGAEQKIIPIETCGIGMVSMGLLIDQNQPVIWRGPMLNGIIRQFLYQASWGERDFLIVDLPPGTGDAQLSLAQAVPMAGVIIVTTPQNVSLQDSRRGLAMFKQMNIPVLGVIENMTYFIPPDQPQKSYKIFGSGGGSQLAKENNVPLLSQIPIETDTFSGTGKDLPVVHTSRDSITAKVFLELAGTLCNALSVKQ,not soluble
10,GIDPFTAPGQLECETAIAALNSCLRDLDQASLAAVSQQLAPREGISQEALHTQMLTAVQEISHLIEPLASAARAEASQLGHKVSQMAQYFEPLTLAAVGAASKTLSHPQQMALLDQTKTLAESALQLLYTAKEAGGNPKQAAHTQEALEEAVQMMTEAVEDLTTTLNEAASAAG,soluble
11,MKILILGNGQVGSTVAQNLAAIPNNDVTVIDIDEKALQETGSRLDVQTVFGNGASPFTLERAGAEDADLLLALSRSDETNIVACKVAADLFNIPGRIARVRSSEYLEYLSPKLENNENGSLSIFGITETISPEQLVTEQLAGLIDCPGALQVLRFADDRVRMVIIQARRGGLLVGRSIADIAQDLPDGADCQICAVYRNNRLIVPAPQTVIIEGDEILFAAAAENIGAVIPELRPKETSTRR,not soluble
12,MIGKNIKSLRKTHDLTQLEFARIVGISRNSLSRYENGTSSVSTELIDIICQKFNVSYVDIVGEDKMLNPVEDYELTLKIEIVKERGANLLSRLYRYQDSQGISIDDESNPWILMSDDLSDLIHTNIYLVETFDEIERYSGYLDGIERMLEISEKRMVA,soluble
13,MDCIRVTTIGYYHRDGDMRVTPGLLPKILNRECLKPLREDFFNLNIEVPDSGQGENNMVSFLDYISQTKCLEDAQPDFVTNKQILTALTGNKPFTIHAIHLKGTIFSFKSGEVRYQDTKNFGGAFEHFCTRTRNDEQLETDDTVRKAVFKAEIPRGNTQFYRVLYSGQIDAIDNEVDRKHYELKIMSQGLNEYFWKEKSCKFYWQSVFGNAPVLIIGSRSGQYSTQTTNNYPPYSLYKVEELKRDRIPSMAARCRKIPGRFGPAPPWKISEGEDNALYFLDLVKDNVINDGDCFSFTRTDENPDWDVKRDEESAAQFRDVVLQYLDR,not soluble
14,MGSDKIHHHHHHMIRNKAFVVRLYPNAAQTELINRTLGSARFVYNHFLARRIAAYKESGKGLTYGQTSSELTLLKQAEETSWLSEVDKFALQNSLKNLETAYKNFFRTVKQSGKKVGFPRFRKKRTGESYRTQFTNNNIQIGEGRLKLPKLGWVKTKGQQDIQGKILNVTVRRIHEGHYEASVLCEVEIPYLPAAPKFAAGVDVGIKDFAIVTDGVRFKHEQNPKYYRSTLKRLRKAQQTLSRRKKGSARYGKAKTKLARIHKRIVNKRQDFLHKLTTSLVREYEIIGTEHLKPDNMRKNRRLALSISDAGWGEFIRQLEYKAAWYGRLVSKVSPYFPSSQLCHDCGFKNPEVKNLAVRTWTCPNCGETHDRDENAALNIRREALVAAGISDTLNAHGGYVRPASAGNGLRSENHATLVV,not soluble
15,MGSDKIHHHHHHMNAMTQVSPLLEMRGICKTFPGVKALDDVSFDIYPGEVHMLLGENGAGKSSLMKVLCGVYVADAGEFHHQGQRVEVSGPADTMRLGIAVIFQEFSLVPYLDIAQNIFLGREPRGRVPGSVDHAKMHAEARRLLDTLGMDISTHTPVHRLGVAQQQMIEIAKALSQNARILVLDEPTAALSERETEKLFGVIARLKADGVSMIYISHRMAEVFALGDRITVMRDGRKVGSYMPGDATPDELVARMVGRKVDMGYTRTRGGPVGEVALDMQGVSADNGIDDITLQVRAGEIVGLAGLVGSGRSEVARAVFGADPVRAGEIRIFGKSMRGGPDKARALGAALIPESRKTEGLALIRSVRDNLLLAGLRRAFPAHWYRSGKAAQLSTREIGRLRIATPSGDQLAQFLSGGNQQKIVIGKWLVAESRLFIFDEPTRGIDVGAKAEIFALIDGLVKQGAAVLLISSELPEIINVCDRTYVMRGGRVAGELAHDAMTEESILQLGMNDA,not soluble
16,MITTPLVHVASVEKGRSYEDFQKVYNAIALKLREDDEYDNYIGYGPVLVRLAWHISGTWDKHDNTGGSYGGTYRFKKEFNDPSNAGLQNGFKFLEPIHKEFPWISSGDLFSLGGVTAVQEMQGPKIPWRCGRVDTPEDTTPDNGRLPDADKDAGYVRTFFQRLNMNDREVVALMGAHALGKTHLKNSGYEGPWGAANNVFTNEFYLNLLNEDWKLEKNDANNEQWDSKSGYMMLPTDYSLIQDPKYLSIVKEYANDQDKFFKDFSKAFEKLLENGITFPKDAPSPFIFKTLEEQGL,soluble
17,MANNLMSGIIAQQPPIEAESDVHVVKSRLEWGEPAFTILDVRDRSIYNEGHIMGAMSMPIDELTERAAISLDTSRDIYIYGTNDGQTTQAAQILRSAGFKNVSQLKGGFGAWKAIGGATEGIIESRTPAAADDYNVVSRIQNHIETQQK,not soluble
18,MEQDTQHVKPLQTKTDIHAVLASNGRIIYISANSKLHLGYLQGEMIGSFLKTFLHEEDQFLVESYFYNEHHLMPCTFRFIKKDHTIVWVEAAVEIVTTRAERTEREIILKMKVLEEETGHQSLNCEKHEIEPASPESTTYITDDYERLVENLPSPLCISVKGKIVYVNSAMLSMLGAKSKDAIIGKSSYEFIEEEYHDIVKNRIIRMQKGMEVGMIEQTWKRLDGTPVHLEVKASPTVYKNQQAELLLLIDISSRKKFQTILQKSRERYQLLIQNSIDTIAVIHNGKWVFMNESGISLFEAATYEDLIGKNIYDQLHPCDHEDVKERIQNIAEQKTESEIVKQSWFTFQNRVIYTEMVCIPTTFFGEAAVQVILRDISERKQTEELMLKSEKLSIAGQLAAGIAHEIRNPLTAIKGFLQLMKPTMEGNEHYFDIVFSELSRIELILSELLMLAKPQQNAVKEYLNLKKLIGEVSALLETQANLNGIFIRTSYEKDSIYINGDQNQLKQVFINLIKNAVESMPDGGTVDIIITEDEHSVHVTVKDEGEGIPEKVLNRIGEPFLTTKEKGTGLGLMVTFNIIENHQGVIHVDSHPEKGTAFKISFPKK,not soluble
19,MGSDKIHHHHHHMTWRIVHIHQSEKMRLKLDNLVIKKQGDEFTIPLSDISIIVAEGGDTVVTLRLLSALSKYNIALIVCDNHHLPTGIYHSQNGHFRAYKKLQAQLSWAPLQKDKLWQIIIYFKITNQQDVLAMQEKSLSTIQLLSDYREHIELGDRTNREGHAAKVYFNELFGKQFVRLTQQETDAVNAGLNYGYTIFRAQMARIIAGYGLNALIGIFHKNEYNQFNLADDLMEPFRQIVDVWVYMNLREADFLTYQHRLELTNLLNAKIRYGKENCSVTVAMDKFVKGFIRCIEDKDTNQFFCPVVSSLEMEKL,not soluble
20,MSPDFLVTHSGGFHADELLSSVILTRLFPQARLIRSRAPEWITPAPGRIIYDVGGAYDPAAGIFDHHQRGAPQRDDGQPYSSFGLIWKHYGREYLAASGLPDHHVEALHAAFDTGFVLPIDLTDNGALSPSGPLAGLMLPALLETLKPVFDEAEPAADDRAFHAALAIARSFVDAGIAQRAAKLRAEAIVYRAIGDAGQGRILELPRGMPFRPAIVKAGADHLLFVVHPREKDWCVTGIRRAEDGFELRADLPAAWAGLTNGELEAVCGIEGASFCHNGRFVAAAKTRDAALAMAELAVQEALSIGVLEHHHHHH,soluble
